Numbering of substitutions follows the chain as printed. Where two headings read alike, the source gives them in different places.
Experiments:
[1] = molecular target: T1, Human-Fc-tagged SARS-CoV2 S1 recombinant protein (Sino Biologicals) (SARS-CoV-2, UniProt P0DTC2 16-685)
[2] = molecular target: T2, Mouse-Fc-tagged SARS-CoV2 S1-RBD (Sino Biologicals) recombinant protein (SARS-CoV-2, UniProt P0DTC2 319-541); test: ELISA on coated S1-RBD-mFc
T2 construct: domain: S1-RBD

[3] = molecular target: T2, Mouse-Fc-tagged SARS-CoV2 S1-RBD (Sino …); test: competition ELISA: blocks S1-RBD-mFc binding to coated ACE-2 ECD
[4] = molecular target: T3, His-tagged SARS-CoV S1-RBD (Sino Biologicals) (SARS-CoV, UniProt P59594 306-527); test: ELISA on coated His-tagged SARS-CoV S1-RBD [D00020 Figure 8A continued]
T3 construct: domain: S1-RBD; Bought reagent

[5] = molecular target: T1, Human-Fc-tagged SARS-CoV2 S1 …; test: ELISA on coated S1-hFc, 3 µg/ml; rabbit antibody in B-cell supernatant
[6] = molecular target: T2, Mouse-Fc-tagged SARS-CoV2 S1-RBD (Sino …); test: ELISA on coated S1-RBD-mFc; remark: listed apart in the source
[7] = molecular target: T2, Mouse-Fc-tagged SARS-CoV2 S1-RBD (Sino …); test: competition ELISA: blocks S1-RBD-mFc binding to coated ACE-2 ECD; remark: listed apart in the source
[8] = molecular target: T2, Mouse-Fc-tagged SARS-CoV2 S1-RBD (Sino …); test: SPR, S1-RBD-mFc captured via anti-mouse-Fc antibody, 1:1 model

B1: P043.A.00036.C07 (antibody, V domains shown)
VH: QSLEESGGDLVKPGASLTLTCTASGFSFSSSYWICWVRQAPGKGLEWIGCIYTGSGSTWYASWAKGRFTISKTSSTTVTLQMTSLTAADTATYFCARGYGSYMYDFWGPGTLVTVSS
VL: DVVMTQTPASVEAAVGGTVTIKCQASQSISTALAWYQQKPGQPPKLLIYSASTLESGVPSRFKGSGSGTEFTLAISDLESADAATYYCQGADGSSSSFGGGTEVVVK
notes: also called 448; protein sample ID 448
- IC50 [1]: 0.0141 µg/mL
- EC50 [2]: 0.007 µg/mL
- IC50 [3]: 0.0434 µg/mL
- binding result [4]: no binding (tested: 1000 ng/ml)
- EC50 [5]: 0.0387 µg/mL

B2: 460 (bispecific antibody)
heavy chain: QSVEESGGRLVTPGTPLTLTCTVSGFSLSSYAMNWVRQAPGKGLEWIGIISSSGSTYYASWAKGRFTISKTSTTVDLKITSPTTEDTATYFCARVGAGYAGYGYDNYYGMDPWGPGTLVTVSSASTKGPSVFPLAPSSKSTSGGTAALGCLVKDYFPEPVTVSWNSGALTSGVHTFPAVLQSSGLYSLSSVVTVPSSSLGTQTYICNVNHKPSNTKVDKRVEPKSCDKTHTCPPCPAPEAAGGPSVFLFPPKPKDTLMISRTPEVTCVVVDVSHEDPEVKFNWYVDGVEVHNAKTKPREEQYNSTYRVVSVLTVLHQDWLNGKEYKCKVSNKALPAPIEKTISKAKGQPREPQVYTLPPSREEMTKNQVSLTCLVKGFYPSDIAVEWESNGQPENNYKTTPPVLDSDGSFFLYSKLTVDKSRWQQGNVFSCSVLHEALHSHYTQKSLSLSPGK
light chain fused to scFv: AIQMTQSPSSLAASVGDTVTITCKASEDIGYGLNWYQQKLGIAPKLLIYGANTLESGVPSRFSGSGSETDYTLTISSVQAEDAGIYYCQQGYSTPLTFGAGTKVEIKRTVAAPSVFIFPPSDEQLKSGTASVVCLLNNFYPREAKVQWKVDNALQSGNSQESVTEQDSKDSTYSLSSTLTLSKADYEKHKVYACEVTHQGLSSPVTKSFNRGECDVPGGSGGGGSGGGGSGGGGSQMQLVQSGTEVKKPGESLKISCKGSGYGFITYWIGWVRQMPGKCLEWMGIIYPGDSETRYSPSFQGQVTISADKSINTAYLQWSSLKASDTAIYYCAGGSGISTPMDVWGQGTTVTVGGGGSGGGGSGGGGSGGGGSDIQLTQSPDSLAVSLGERATINCKSSQSVLYSSINKNYLAWYQQKPGQPPKLLIYWASTRESGVPDRFSGSGSGTDFTLTISSLQAEDVAVYYCQQYYSTPYTFGCGTKVEIK
notes: also called LC of P043.A.00020.D06 with a C-terminal fusion of a scFv of anti-S1 antibody; HC of P043.A.00020.D06 as IgG1-LALA-LS
- EC50 [6]: 0.0153 µg/mL
- IC50 [7]: 0.0765 µg/mL
- IC90 [7]: 5.69 µg/mL

B3: 454 (bispecific antibody)
heavy chain: QSVEESGGRLVTPGTPLTLTCTVSGFSLSKYAMSWVRQAPGKGLEWIGIISSGGSTYYASWAKGRFTISKTSSTTVDLKITSPTTEDTATYFCARAGYPGYSPHYFNIWGPGTLVTVSLASTKGPSVFPLAPSSKSTSGGTAALGCLVKDYFPEPVTVSWNSGALTSGVHTFPAVLQSSGLYSLSSVVTVPSSSLGTQTYICNVNHKPSNTKVDKRVEPKSCDKTHTCPPCPAPEAAGGPSVFLFPPKPKDTLMISRTPEVTCVVVDVSHEDPEVKFNWYVDGVEVHNAKTKPREEQYNSTYRVVSVLTVLHQDWLNGKEYKCKVSNKALPAPIEKTISKAKGQPREPQVYTLPPSREEMTKNQVSLTCLVKGFYPSDIAVEWESNGQPENNYKTTPPVLDSDGSFFLYSKLTVDKSRWQQGNVFSCSVLHEALHSHYTQKSLSLSPGK
light chain fused to scFv: B2 light chain fused to scFv with G32E, S63T, L96P
notes: also called LC of P043.A.00023.A08 with a C-terminal fusion of a scFv of anti-S1 antibody; HC of P043.A.00023.A08 as IgG1-LALA-LS
- EC50 [6]: 0.0178 µg/mL
- IC50 [7]: 0.0435 µg/mL
- IC90 [7]: 0.453 µg/mL

B4: 461 (bispecific antibody)
heavy chain: QSVEESGGRLVTPGTPLTLTCTVSGFSLSSYAMSWVRQAPGKGLEWIGIINSGRSTYYASWAKGRFTISKTSTTVDLKITSPTTEDTATYFCARDATSIGYYRYYGMDPWGPGTLVTVSSASTKGPSVFPLAPSSKSTSGGTAALGCLVKDYFPEPVTVSWNSGALTSGVHTFPAVLQSSGLYSLSSVVTVPSSSLGTQTYICNVNHKPSNTKVDKRVEPKSCDKTHTCPPCPAPEAAGGPSVFLFPPKPKDTLMISRTPEVTCVVVDVSHEDPEVKFNWYVDGVEVHNAKTKPREEQYNSTYRVVSVLTVLHQDWLNGKEYKCKVSNKALPAPIEKTISKAKGQPREPQVYTLPPSREEMTKNQVSLTCLVKGFYPSDIAVEWESNGQPENNYKTTPPVLDSDGSFFLYSKLTVDKSRWQQGNVFSCSVLHEALHSHYTQKSLSLSPGK
light chain fused to scFv: B2 light chain fused to scFv
notes: also called LC of P043.A.00018.C02 with a C-terminal fusion of a scFv of anti-S1 antibody; HC of P043.A.00018.C02 as IgG1-LALA-LS
- EC50 [6]: 0.0128 µg/mL
- IC50 [7]: 0.0525 µg/mL
- IC90 [7]: 0.913 µg/mL

B5: 455 (bispecific antibody)
heavy chain: QSVEESGGRLVTPGTPLTLTCTVSGFSLSSYAMSWVRQAPGKGLEWIGIISSSGSTYYASWAKGRFTISKTSTTVDLKITSPTTEDTATYFCARAMYPGYSTGVYNIWGPGTLVTVSLASTKGPSVFPLAPSSKSTSGGTAALGCLVKDYFPEPVTVSWNSGALTSGVHTFPAVLQSSGLYSLSSVVTVPSSSLGTQTYICNVNHKPSNTKVDKRVEPKSCDKTHTCPPCPAPEAAGGPSVFLFPPKPKDTLMISRTPEVTCVVVDVSHEDPEVKFNWYVDGVEVHNAKTKPREEQYNSTYRVVSVLTVLHQDWLNGKEYKCKVSNKALPAPIEKTISKAKGQPREPQVYTLPPSREEMTKNQVSLTCLVKGFYPSDIAVEWESNGQPENNYKTTPPVLDSDGSFFLYSKLTVDKSRWQQGNVFSCSVLHEALHSHYTQKSLSLSPGK
light chain fused to scFv: B2 light chain fused to scFv with G32E, S93N, L96N
notes: also called LC of P043.A.00017.E07 with a C-terminal fusion of a scFv of anti-S1 antibody; HC of P043.A.00017.E07 as IgG1-LALA-LS
- EC50 [6]: 0.0116 µg/mL
- IC50 [7]: 0.0481 µg/mL
- IC90 [7]: 0.868 µg/mL

B6: 462 (bispecific antibody)
heavy chain: QSVEESGGRLVTPGTPLTLTCTVSGFSLSSYAMSWVRQAPGKGLEWIGIISSSGTTYYASWAKGPFTISKTSTTVDLKITSPTTEDTATYFCARGGAGYGYAHYYGMDPWGPGTLVTVSSASTKGPSVFPLAPSSKSTSGGTAALGCLVKDYFPEPVTVSWNSGALTSGVHTFPAVLQSSGLYSLSSVVTVPSSSLGTQTYICNVNHKPSNTKVDKRVEPKSCDKTHTCPPCPAPEAAGGPSVFLFPPKPKDTLMISRTPEVTCVVVDVSHEDPEVKFNWYVDGVEVHNAKTKPREEQYNSTYRVVSVLTVLHQDWLNGKEYKCKVSNKALPAPIEKTISKAKGQPREPQVYTLPPSREEMTKNQVSLTCLVKGFYPSDIAVEWESNGQPENNYKTTPPVLDSDGSFFLYSKLTVDKSRWQQGNVFSCSVLHEALHSHYTQKSLSLSPGK
light chain fused to scFv: B2 light chain fused to scFv
notes: also called LC of P043.A.00024.C11 with a C-terminal fusion of a scFv of anti-S1 antibody; HC of P043.A.00024.C11 as IgG1-LALA-LS
- EC50 [6]: 0.0119 µg/mL
- IC50 [7]: 0.0464 µg/mL
- IC90 [7]: 0.948 µg/mL

B7: P043.A.00023.E05 (antibody, V domains shown)
VH: QSLEESGGRLVTPGTPLTLTCTVSGFSLSSYAMSWVRQAPGKGLEWIGIISSSGSTYYASWAKGRFTISKTSTTVDLKITSPTTEDTATYFCARDASSRGYYYYYGMDPWGPGTLVTVSS
VL: AIQMTQSPSSLAASVGDTVTITCKASEDIGYGLNWYQQKLGIAPKLLIYGANTLESGVPSRFSGSGSETDYTLTISSVQAEDAGIYYCQQGYSTPLTFGAGTKVEIK
notes: also called 443; protein sample ID 443
- IC50 [1]: 0.0082 µg/mL
- EC50 [2]: 0.0112 µg/mL
- Kd [8]: 0.268 nM
- koff [8]: 0.000263 s⁻¹
- kon [8]: 982000 M⁻¹ s⁻¹
- IC50 [3]: 0.0349 µg/mL
- binding result [4]: no binding (tested: 1000 ng/ml)
- EC50 [5]: 0.0166 µg/mL

B8: P043.A.00032.C04 (antibody, V domains shown)
VH: QSLEESGGRLVTPGTPLTLTCTASGFSLSSYWMSWVRQAPGKGLEWIGIIYVSGSTYYASWAKGRFTISKTSTTVDLKMTSLTTEDTATYFCARVDYSTGWPLFNIWGPGTLVTVSL
VL: AQVLTQTASPVSAAVGGTVTINCQSSQSVYDNNWLGWYQQKPGQPPKLLIYGASILASGVPSRFKGSGSGTQFTLTISDLESDDAATYYCQGGCSGNTFVFGGGTEVVVK
notes: also called 452; protein sample ID 452
- IC50 [1]: 0.0147 µg/mL
- EC50 [2]: 0.007 µg/mL
- IC50 [3]: 0.115 µg/mL
- binding result [4]: no binding (tested: 1000 ng/ml)
- EC50 [5]: 0.0265 µg/mL

Reference: patent US20230287088A1 (BIONTECH, published 2023)
